The values below are quoted from earlier work in paper PMC4072998.

The target in data set [1] is T1, Glu14 (UniProt position 14, GAILAEVIGTT). The experiment in a line: kinetics. The settings on record: pre-equilibrium; free protein binding substrate.
Data set [2] deals with T1, Glu14. Briefly: other.
Data set [3] addresses Asp14 (UniProt position 14, GAILADVIGTT). The experiment in a line: kinetics. The settings on record: pre-equilibrium; free protein binding substrate.

Consider “EmrE (small multidrug resistance transporter) (Escherichia coli)”, for which the pKa is ~7.3 in data set [1]; 8.3-8.5 in data set [2] (equilibrium, substrate-induced deprotonation); 7-8 in data set [2] (substrate-free protein competing for H+ versus TPP+).

For “EmrE E14D mutant (Escherichia coli; E14D)”, the pKa in data set [3] is reported as 5.8.
